Results on 1 molecule are retold here after publication PMC3424240, “Rbm15-Mkl1 Interacts with the Setd1b Histone H3-Lys4 Methyltransferase via a SPOC Domain That Is Required for Cytokine-Independent Proliferation” (PLoS ONE, 2012).

For the assay, the target named is T1, His-SPOC domain (aa 782–977 of Rbm15) (human, UniProt Q96T37 782-977).
T1 construct: cloned in the pBAD/His vector; also called His-tagged Rbm15 SPOC domain; source: E. coli, purified (Ni-NTA agarose), dialyzed against PBS
T1 sequence (looked up): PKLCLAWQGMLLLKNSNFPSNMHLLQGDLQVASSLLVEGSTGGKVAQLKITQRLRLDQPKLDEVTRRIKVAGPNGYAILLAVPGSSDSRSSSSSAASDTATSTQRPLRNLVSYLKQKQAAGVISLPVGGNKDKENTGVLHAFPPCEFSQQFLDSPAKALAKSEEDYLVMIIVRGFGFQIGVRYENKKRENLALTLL
The assay can be described thus: pull-down; GST pull-down of purified proteins on glutathione-agarose; 20 mM Tris-HCl pH 8.0, 150 mM NaCl, 2 mM EDTA, 0.2% NP-40, 0.5% deoxycholate; 2 h, then beads 1 h; Western blotting and Coomassie staining. The following applies: both partners purified.

B1: GST-LSD (aa 542–628 of Setd1b) (domain or fragment, human, UniProt Q9UPS6 542-628, looked up)
chain: PLAPFGTNSQPGFRGPTPPSSRPSSTGLEDISPTPLPDSDEDEELDLGLGPRPPPEPGPPDPAGLLSQTAEVALDLVGDRTPTSEKM
notes: human Setd1b LSD domain, residues 542-628; cloned in the pGEX 4T vector; also called GST-Setd1b LSD domain; source: E. coli, purified
As to B1, the binding result is on record as “binds”.
